# Source: PMC6566870, “Influence of Chemokine N-Terminal Modification on Biased Agonism at the Chemokine Receptor CCR1” (International Journal of Molecular Sciences, 2019)
# T1: N-terminally His6-tagged cMyc-tagged human CCR1 (human, UniProt P32246 1-355)
# T1 sequence (looked up): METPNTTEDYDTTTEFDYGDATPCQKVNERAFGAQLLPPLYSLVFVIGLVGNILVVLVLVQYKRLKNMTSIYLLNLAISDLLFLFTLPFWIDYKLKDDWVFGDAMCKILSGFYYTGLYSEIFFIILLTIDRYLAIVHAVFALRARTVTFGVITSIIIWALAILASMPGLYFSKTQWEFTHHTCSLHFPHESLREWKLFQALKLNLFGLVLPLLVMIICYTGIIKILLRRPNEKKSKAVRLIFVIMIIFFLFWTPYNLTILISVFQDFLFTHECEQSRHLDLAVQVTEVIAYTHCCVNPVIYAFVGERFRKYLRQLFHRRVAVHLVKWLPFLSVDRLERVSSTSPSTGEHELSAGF
# B1: CCL7 (ligand)
# chain: not shown
# notes: CCL7 (MCP-3), human, wild type; N-terminal region of ten residues before the CC motif; also called monocyte chemoattractant protein-3; MCP-3; not shown: His6, N-terminal, cleaved
# B2: CCL8 (Lys-46 allele, Pro-8→Ala) (ligand, human, UniProt P80075 24-99, looked up)
# chain: QPDSVSIAITCCFNVINRKIPIQRLESYTRITNIQCPKEAVIFKTKRGKEVCADPKERWVRDSMKHLDQIFQNLKP
# notes: CCL8 (MCP-2), human, Lys-46 allele, with Pro-8→Ala to make the protein monomeric; N-terminal region of ten residues before the CC motif; also called MCP-2; not shown: His6, N-terminal, cleaved
# What was measured:
# [1] = target: T1, N-terminally His6-tagged cMyc-tagged …; experiment: cell-based or functional assay
# [2] = target: T1, N-terminally His6-tagged cMyc-tagged …; experiment: cell-based or functional assay; remark: listed apart in the source
# [3] = target: T1, N-terminally His6-tagged cMyc-tagged …; experiment: radioligand binding; competitive displacement of 50 pM 125I-CCL3 from membranes of Flp-In T-REx 293 cells expressing CCR1; 2 h at 37 °C; two sets of experiments (Table 1, Table 3); conditions: one partner purified
# [4] = target: T1, N-terminally His6-tagged cMyc-tagged …; experiment: as above; conditions: one partner purified; remark: listed apart in the source
Binder,"ERK1/2 phosphorylation, EC50 [1] [nM]","ERK1/2 phosphorylation, pEC50 [1]","G protein activation (Gαi1, BRET), EC50 [1] [nM]","G protein activation (Gαi1, BRET), pEC50 [1]","inhibition of forskolin-induced cAMP production, EC50 [1] [nM]","inhibition of forskolin-induced cAMP production, pEC50 [1]","Gαi2 activation (BRET), EC50 [2] [nM]","Gαi2 activation (BRET), pEC50 [2]",IC50 [3] [nM],pIC50 [3],IC50 [4] [nM],pIC50 [4]
B1,9.6,8 -log M,14,7.9 -log M,9.5,8 -log M,26.4,7.6 -log M,0.33,9.5 -log M,1.2,8.9 -log M
B2,65.5,7.2 -log M,30,7.5 -log M,48,7.3 -log M,–,–,2.3,8.6 -log M,–,–
